The values that follow come from the nanobody polyreactivity screen of Harvey et al. (2022).

The nature of the data set: yeast display, Sf9 membrane polyspecificity reagent, FACS + sequencing; frameworks hold sequencing errors. The method, boiled down: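 After 36–48 hours of galactose induction, yeast (Saccharomyces cerevisiae BJ5465) displaying a synthetic nanobody library were stained at 4 °C for 1 hour with 10% biotinylated, detergent-solubilized Sf9 membrane reagent. Streptavidin microbeads enriched the stained cells before FACS sorting into low and high (top ~1%) gates on anti-HA and streptavidin fluorescence. Each clone's polyreactivity label reflects its gate of origin.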
As for “QVQLVESGGGLVQAGGSLRLSCAASGFIFTRNVMGWYRQAPGKERELVAAISSGGRTYYADSVKGRFTISRDNAKNTVYLQMNRLKPEDTAVYYCSIVSKFTGDYGYWGQGTQVTVSS”, the “polyreactivity (PSR sort gate)” value was “high polyreactivity”.
Take “QVQLVESGGGLVQAGGSLRLSCAASGFIFTRYAMGWYRQAPGKERELVATITSGGSTNYADSVKGRFTISRDNAKNTVYLQMNSLKPEDTAVYYCTARWTGSYTSTGFRRRFDYWGQGTQVTVSS”: the “polyreactivity (PSR sort gate)” value is recorded as “high polyreactivity”.
In the case of “QVQLVESGGGLVQAGGSLRLSCAASGFIFTSYAMGWYRQAPGKERELVAAISGSAASTYYADSVKGRFTISRDNAKNTVYLQMNSLKPEDTAVYYCAADYQGYTPSDGRYYWGQGTQVTVSS” it was “low polyreactivity”; in that of “QVQLVESGGGLVQAGGSLRLSCAASGFIFTVNAMGWYRQAPGKERELVAAITQSCGNTSYADSVKGRFTISRDNAKNTVYLQMNSLKPEDTAVYYCNASSDTSRYGVSTYYYWGQGTQVTVSS”, “low polyreactivity”; in that of “QVQLVESGGGLVQAGGSLRLSCAASGFIFTVNAMGWYRQAPGKERELVAAITQSGGNTSYADSVKGRFTISRDNAKNTVYLQMNSLKPEDTAVYYCNAEYTWPYHGVRNGWFNFKYEYWGQGTQVTVSS”, “low polyreactivity”.
As for “QVQLVESGGGLVQAGGSLRLSCAASGFIFVANAMGWYRQAPGKERELVADINRGSTYYADSVKGRFTISRDNAKNTVYLQMNSLKPEDTAVYYCNRVYTQTYNPWGFEYWGQGTQVTVSS”, the “polyreactivity (PSR sort gate)” value is recorded as “high polyreactivity”.
Take “QVQLVESGGGLVQAGGSLRLSCAASGFIFVDYAMGWYRQAPGKERELVASIDRSDGSTYYADSVKGRFTISRDNAKKTVYLQMNSLKPEDTAVYYCAADDPLYSISTGDYWGQGTQVTVSL”: the “polyreactivity (PSR sort gate)” value is on record as “low polyreactivity”.
Regarding “QVQLVESGGGLVQAGGSLRLSCAASGFIFVGNAMGWYRQAHGKERELVAAISRRGSRTFYADSVKARFTISRDNAKNTVYLQMNSLKPEETAVYYCAAEGYYVTPFDYWGQGTQVTVSS”, the “polyreactivity (PSR sort gate)” value is “high polyreactivity”.
“QVQLVESGGGLVQAGGSLRLSCAASGFIFVGYGMGWYRQAPGKERELVAVITASGGSTYYADSVKGRFTISRDYAKKTVYLQMNSLKPEATAVYYCAARVGRYGYSEYYYWGHGTQVTVSS”: the “polyreactivity (PSR sort gate)” value is given as “high polyreactivity”.
For “QVQLVESGGGLVQAGGSLRLSCAASGFIFVKNAMGWYRQAPGKERELVAVISTRGGRTYYADSVKGRFTISRDNAKNTVYLQMNSLKPEDTAVYYCAADIWFYTYYEYDYWGQGTQVTVSS”, the “polyreactivity (PSR sort gate)” value is listed as “high polyreactivity”.
As to “QVQLVESGGGLVQAGGSLRLSCAASGFIFVKNAMGWYRQAPGKERELVAVISTRGGRTYYADSVKGRFTISRDNAKNTVYLQMNSLKPEDTAVYYCAAGDQYKTRRNGYGYWGQGTQVTVSS”, the “polyreactivity (PSR sort gate)” value is “high polyreactivity”.
For the sequence “QVQLVESGGGLVQAGGSLRLSCAASGFIFVKNAMGWYRQAPGKESELVAVISTRGGRTYYADSVKGRFTISRDNAKNTVYLQMNSLKPEDTAVYYCAAGDQYKTRRNGYGYWGQGTQVTVSS”, the “polyreactivity (PSR sort gate)” value is “high polyreactivity”.
Turning to “QVQLVESGGGLVQAGGSLRLSCAASGFIFVKYAIGWYRTAPGKERELVAAITTSGTGTFYADSVKGRFTISRDNAKNTVYLQMNSLKPEDTAVYYCNALGHPGDDWGQGTQVTVSS”, the “polyreactivity (PSR sort gate)” value is on record as “low polyreactivity”.
As to “QVQLVESGGGLVQAGGSLRLSCAASGFIFVKYAMGWYRQAPGKERELVAAISWSGGTTYYSDSVKGRFTISRDNAKNTVYLKMNSLKPEDTAVYYCAAEYYTGYFKYDYWGQGTQVTVSS”, the “polyreactivity (PSR sort gate)” value was “high polyreactivity”.
The same measure for “QVQLVESGGGLVQAGGSLRLSCAASGFIFVLYAMGWYRQAPGKERELVAAITWSTGSTYYADSVKGRFTISRDNAKNTVYLQMNSLKPEDTAVYYCAADQYIFGIWFDYWGQGTQVTVSS”: “high polyreactivity”.
The same measure for “QVQLVESGGGLVQAGGSLRLSCAASGFIFVRNAMGWYRQAPGKERELVAAISSRGGRTYYADSVKGRFTISRDNAKNTVYLQMNSLKPEDTAVYYCNADRDTQGDGYDYWGQGTQVTVSS”: “high polyreactivity”; for “QVQLVESGGGLVQAGGSLRLSCAASGFIFVRNAMGWYRQAPGKERELVAAITGRGGRTYYADSVKGRFTISRDNAKNTVYLQMNSLKPEVTAVYYCAIDSPDDHFGYWGQGTQVTVSS”: “high polyreactivity”.
On to “QVQLVESGGGLVQAGGSLRLSCAASGFIFVRYAMGWYRPAPGKERELVAVITSGGSTYYADSVKGRFTISRDNAKNTVYLQMNSLKPEDTAVYYCAAQSKRYVRSYSWYDYWGQGTQVTVSS”, for which the “polyreactivity (PSR sort gate)” value is reported as “high polyreactivity”.
“QVQLVESGGGLVQAGGSLRLSCAASGFIFVRYAMGWYRQAPGKERELVAAISSGGSTQYADSVKGRFTISRDNAKNTVDLQMNSLKPEDTPVYYCAAAATPGRGGDYWGQGTQVTVSS”: the “polyreactivity (PSR sort gate)” value is listed as “high polyreactivity”.
In the case of “QVQLVESGGGLVQAGGSLRLSCAASGFIFVRYAMGWYRQAPGKEREMVAAISSGGSTKYADSVKGRFTISRDNAKNTVYLQMNSLKPEDTAVYYCAADATPGRGVDYWGQGTQVTVSS” it was “high polyreactivity”.
For “QVQLVESGGGLVQAGGSLRLSCAASGFIFVSYAMGWYRPAPGKERELVAAIDRIGGITYYADSVKGRFTISRDNAKNTVYLQMNSLKPEDTAVYYCAAAARYATVRVGREYYWGQGTQVTVSS”, the “polyreactivity (PSR sort gate)” value is “low polyreactivity”.
The same measure for “QVQLVESGGGLVQAGGSLRLSCAASGFIFVWYAMGWYRQAPGKERELVAAINGGGRTNYADSVKGRFTISRDNAKYTVYLQMNSLKPEDTAVYYGAAVSYYKSYGEFDYWGQGTQVTVSL”: “high polyreactivity”; for “QVQLVESGGGLVQAGGSLRLSCAASGFIFVYNAMGWYRPAPGKERELVAAINGSGDSTYYADSVKGRFTISRDNAKNTVYLQMNSLKPEDTAVYYCAARYKVPLSRYILVLYDYWGQGTQVTVSS”: “low polyreactivity”; for “QVQLVESGGGLVQAGGSLRLSCAASGFIFVYNAMGWYRQAPGKEREFVASITWSGGRTYYADSVKGRFTISRDNAKNTVYLLMNILKPEDTAVYYCATKYPNSQGRRYDYWGKGTQVTVSS”: “low polyreactivity”.
In the case of “QVQLVESGGGLVQAGGSLRLSCAASGFIFVYNDMGWYRQAPGKERELVAAISSSGGSTYYADSVKGRFTISRDNAKNTVYLKMNSLKAEDTAVYYCAKTGWNLDYSYSTDGYDYWGQGTLVTVSS” it was “high polyreactivity”.
On to “QVQLVESGGGLVQAGGSLRLSCAASGFIFVYYAMGWYRQAPGKERELVAAINQSGGRTYYADSVKGRFTISRDNAKNTVYLQMNSLKPEDTAVYYCAAESWDLYRYGQKHEYWGQGTQVTVSS”, for which the “polyreactivity (PSR sort gate)” value is recorded as “low polyreactivity”.
With “QVQLVESGGGLVQAGGSLRLSCAASGFIFVYYAMGWYRQAPGKERELVAAISSDGSTNYADSVKGRFTISRDNAKNTVYLQMNSLKPEDTAVYYCNARYVASPSGKRRLIDVDYWGQGTQVTVSS”, the “polyreactivity (PSR sort gate)” value is reported as “low polyreactivity”.
On to “QVQLVESGGGLVQAGGSLRLSCAASGFIFVYYGMGWYRQAPGKERELVAAISRSGGSTYYADSVKGRFTISRDNAKNTVYLQMNSLKPEDTAVYYCAARPDRSSQFDSWGQGTQVTVSS”, for which the “polyreactivity (PSR sort gate)” value is on record as “high polyreactivity”.
As to “QVQLVESGGGLVQAGGSLRLSCAASGFIFVYYGMVWYRQAPGKERELVAAISRSGGSTYYADSVKGRFTISRDNAKNTVYLQMNSLKPEDTAVYYCNVVRWYYHPPLTGSRFDYWGHGTQVTVSS”, the “polyreactivity (PSR sort gate)” value is listed as “high polyreactivity”.
In the case of “QVQLVESGGGLVQAGGSLRLSCAASGFIFWFNAMGWYRQAPGKERELVATISWSDTSTYYADSVKGRFTISRDNAKNTVYLQMNSLKPEDTAVYYCATDGRETWLPEYYWGQGTQVTVSS” it was “low polyreactivity”.
In the case of “QVQLVESGGGLVQAGGSLRLSCAASGFIFWKYAMGWYRQAPGKEREFVAAINWRGDRTYYADSVKGRFTISRDNAKNTVYLQMNSLKPEDTAVYYCAAVVGYYHRRFDYWGQGTQVTVSS”, the “polyreactivity (PSR sort gate)” value is listed as “high polyreactivity”.
Take “QVQLVESGGGLVQAGGSLRLSCAASGFIFWPYAMGWYRQAPGKERELVAAITTGGSTNYADSVKGRFTISRDNAKNTVYLQMNSLKPEDTAVYYCAKGYYFGYYEFDYWGQGTQVTVSS”: the “polyreactivity (PSR sort gate)” value is “high polyreactivity”.
With “QVQLVESGGGLVQAGGSLRLSCAASGFIFWQYAMGWYRQAPGKERELVAAISGRGGRTYYADSVKGRFTISRDNAKNTVYLQMNSLKPEDTAVYYCNKVGPLVGGVKYYYWGQGTQVTVSS”, the “polyreactivity (PSR sort gate)” value is on record as “high polyreactivity”.
In the case of “QVQLVESGGGLVQAGGSLRLSCAASGFIFWQYTMAWYRQAPGKERELVAAISFSGGRTYYADSVKGRFTISRDNAKNTVYLQMNSLKPEDTAVYYCAASAVPRQKGFYYWGQGTQVTVSS” it was “high polyreactivity”; in that of “QVQLVESGGGLVQAGGSLRLSCAASGFIFWRYAMGWYRQAPGKERELVAAISSGGNTKYADSVKGRFTISRDNAKNTVYLQMNSLKPEDTAVYYCAVLGKYLWSATNRFPGSYDSWGQGTQVTVSS”, “high polyreactivity”.
As to “QVQLVESGGGLVQAGGSLRLSCAASGFIFWSYAMGWYRQAPGKERELVAAISWSGGRTYYADSVKGRFTISRDNAKNTVYLQMNSLKPEDTAVYYCAAVKRYSSQYPALDYWGQGTQVTVSS”, the “polyreactivity (PSR sort gate)” value is reported as “high polyreactivity”.
The same measure for “QVQLVESGGGLVQAGGSLRLSCAASGFIFWYYAMGWYRQAPGKERELVAAISARDGSTYYADSVKGRFTISRDNAKNTVYLQMNSLKPEDTAVYYCNAVQRYPKFRMDYWGQGTQVTVSS”: “low polyreactivity”; for “QVQLVESGGGLVQAGGSLRLSCAASGFIFYAYAMGWSRQAPGKERELVAAISGSGGSTYYADSVKGRFTISRDNAKNTVYLQMNSLKPEDTAVYYCAARSRVSNRSYYYWGQGTQVTVSS”: “high polyreactivity”; for “QVQLVESGGGLVQAGGSLRLSCAASGFIFYDYDMGWYRQAPGKERELVAAITYSGGSTYYADSVKGRFTISRDNAKNTVYLQMNSLKPEDTAVYYCAAVKSRYAEAVDYYYWGLGTQVTVSS”: “low polyreactivity”.
In the case of “QVQLVESGGGLVQAGGSLRLSCAASGFIFYDYMGWYRQAPGKERELVAVISYSGSSTYYADSVKGRFTISRDNAKNTVYLQMNSLKPEDTAVYYCAARNVNGWDYDYWGQGTQVTVSS” it was “low polyreactivity”.
